{
  "source": "paper PMC2267071",
  "proteins": {"B1": {"name": "Ac-TESHHK-NH2, hexapeptide model of the histone H2A C-terminal tail (-ESHH- motif) (synthetic peptide; sequence from mammalian histone H2A (species not stated)) (peptide)", "chain": "TESHHK"}, "B2": {"name": "Ac-TASHHK-NH2, Glu-to-Ala analogue of the histone H2A -TESHHK- peptide (synthetic peptide; sequence derived from mammalian histone H2A (species not stated); … (peptide)", "chain": "TASHHK"}, "B3": {"name": "Ac-TEAHHK-NH2, Ser-to-Ala analogue of the histone H2A -TESHHK- peptide (synthetic peptide; sequence derived from mammalian histone H2A (species not stated); … (peptide)", "chain": "TEAHHK"}},
  "key": {"[1]": {"target": "His4 (position 4, --TESHHK---)", "test": "NMR", "conditions": "25 C; free peptide (no metal), 5 mM"}, "[2]": {"target": "His5 (position 5, -TESHHK----)", "test": "NMR", "conditions": "25 C; free peptide (no metal), 5 mM"}, "[3]": {"target": "Glu2 (position 2, ----TESHHK-)", "test": "potentiometry", "conditions": "25 C; 0.1 M KNO3; free peptide (no metal)"}, "[4]": {"target": "His4 (position 4, --TESHHK---)", "test": "potentiometry", "conditions": "25 C; 0.1 M KNO3; free peptide (no metal)"}, "[5]": {"target": "His5 (position 5, -TESHHK----)", "test": "potentiometry", "conditions": "25 C; 0.1 M KNO3; free peptide (no metal)"}, "[6]": {"target": "Lys6 (position 6, TESHHK-----)", "test": "potentiometry", "conditions": "25 C, 0.1 M KNO3"}, "[7]": {"target": "His4 (position 4, --TASHHK---)", "test": "NMR", "conditions": "25 C; free peptide (no metal), 5 mM"}, "[8]": {"target": "His5 (position 5, -TASHHK----)", "test": "NMR", "conditions": "25 C; free peptide (no metal), 5 mM"}, "[9]": {"target": "His4 (position 4, --TASHHK---)", "test": "potentiometry", "conditions": "25 C; 0.1 M KNO3; free peptide (no metal)"}, "[10]": {"target": "His5 (position 5, -TASHHK----)", "test": "potentiometry", "conditions": "25 C; 0.1 M KNO3; free peptide (no metal)"}, "[11]": {"target": "Lys6 (position 6, TASHHK-----)", "test": "potentiometry", "conditions": "25 C; 0.1 M KNO3; free peptide (no metal)"}, "[12]": {"target": "His4 (position 4, --TEAHHK---)", "test": "NMR", "conditions": "25 C; free peptide (no metal), 5 mM"}, "[13]": {"target": "His5 (position 5, -TEAHHK----)", "test": "NMR", "conditions": "25 C; free peptide (no metal), 5 mM"}, "[14]": {"target": "Glu2 (position 2, ----TEAHHK-)", "test": "potentiometry", "conditions": "25 C; 0.1 M KNO3; free peptide (no metal)"}, "[15]": {"target": "His4 (position 4, --TEAHHK---)", "test": "potentiometry", "conditions": "25 C; 0.1 M KNO3; free peptide (no metal)"}, "[16]": {"target": "His5 (position 5, -TEAHHK----)", "test": "potentiometry", "conditions": "25 C; 0.1 M KNO3; free peptide (no metal)"}, "[17]": {"target": "Lys6 (position 6, TEAHHK-----)", "test": "potentiometry", "conditions": "25 C, 0.1 M KNO3"}, "[18]": {"conditions": "Zn(II)-bound peptide (ZnH-1L to ZnH-2L step), peptide:Zn ratios 1:1 and 2:1"}},
  "note": "Values joined by “and” are separate entries in the source; they are usually repeats but may differ in a detail not shown here. Equal values may be shown once.",
  "data": [
    {"protein": "B1", "values": [
      {"measurement": "pKa", "setting": "[1]", "value": "6.35 (I) and 6.12 (4)"},
      {"measurement": "pKa", "setting": "[2]", "value": "6.41 (2) and 6.88 (5)"},
      {"measurement": "pKa", "setting": "[3]", "value": 3.85},
      {"measurement": "pKa", "setting": "[4]", "value": 5.90},
      {"measurement": "pKa", "setting": "[5]", "value": 6.78},
      {"measurement": "pKa", "setting": "[6]; [18]", "value": 10.30},
      {"measurement": "pKa", "setting": "[6]; free peptide (no metal)", "value": 10.28}
    ]},
    {"protein": "B2", "values": [
      {"measurement": "pKa", "setting": "[7]", "value": "6.29 (2) and 6.06 (3)"},
      {"measurement": "pKa", "setting": "[8]", "value": "6.30 (2) and 6.61 (4)"},
      {"measurement": "pKa", "setting": "[9]", "value": 5.74},
      {"measurement": "pKa", "setting": "[10]", "value": 6.62},
      {"measurement": "pKa", "setting": "[11]", "value": 10.48}
    ]},
    {"protein": "B3", "values": [
      {"measurement": "pKa", "setting": "[12]", "value": "6.42 (2) and 6.15 (3)"},
      {"measurement": "pKa", "setting": "[13]", "value": "6.48 (2) and 6.72 (2)"},
      {"measurement": "pKa", "setting": "[14]", "value": 4.10},
      {"measurement": "pKa", "setting": "[15]", "value": 6.00},
      {"measurement": "pKa", "setting": "[16]", "value": 6.68},
      {"measurement": "pKa", "setting": "[17]; [18]", "value": 10.34},
      {"measurement": "pKa", "setting": "[17]; free peptide (no metal)", "value": 10.25}
    ]}
  ]
}
